{"source": "patent US20220411483A1", "about": "(Chugai, published 2022)", "binders": {"B1": {"name": "IL6R-P764/IL6R-L (antibody, human IgG1, kappa)", "heavy": "QVQLQESGPGLVKPSETLSLTCAVSGHSISHDHAWSWVRQPPGEGLEWIGFISYSGITNYNPSLQGRVTISRDNSKNTLYLQMNSLRAEDTAVYYCARSLARTTAMDYWGEGTLVTVSSASTKGPSVFPLAPSSKSTSGGTAALGCLVKDYFPEPVTVSWNSGALTSGVHTFPAVLQSSGLYSLSSVVTVPSSSLGTQTYICNVNHKPSNTKVDKKVEPKSCDKTHTCPPCPAPELLGGDSVFLFPPKPKDTLMISRTPEVTCVVIDVSEEDGEVKFNWYVDGVEVHNAKTKPREEQYNSTYRVVSVLTVLHQDWLNGKEYKCKVSNKALPAPIEKTISKAKGQPREPQVYTLPPSRDELTKNQVSLTCLVKGFYPSDIAVEWESNGQPENNYKTTPPVLDSDGSFFLYSKLTVDKSRWQQGNVFSCSVMHEALHNHYTQKSLSLSP", "light": "not shown"}, "B2": {"name": "IL6R-P765/IL6R-L (antibody, human IgG1, kappa)", "heavy": "B1 heavy with S269A, E270H", "light": "not shown"}, "B3": {"name": "IL6R-P766/IL6R-L (antibody, human IgG1, kappa)", "heavy": "B1 heavy with I266V, S269A, A329G, A332S, P333S", "light": "not shown"}, "B4": {"name": "IL6R-P767/IL6R-L (antibody, human IgG1, kappa)", "heavy": "B1 heavy with A329G, A332S, P333S", "light": "not shown"}, "B5": {"name": "IL6R-P768/IL6R-L (antibody, human IgG1, kappa)", "heavy": "B1 heavy with S269A, E270H, A329G, A332S, P333S", "light": "not shown"}, "B6": {"name": "IL6R-P769/IL6R-L (antibody, human IgG1, kappa)", "heavy": "B1 heavy with E270H", "light": "not shown"}, "B7": {"name": "IL6R-P770/IL6R-L (antibody, human IgG1, kappa)", "heavy": "B1 heavy with E270H, A329G, A332S, P333S", "light": "not shown"}, "B8": {"name": "IL6R-P771/IL6R-L (antibody, human IgG1, kappa)", "heavy": "B1 heavy with E270H, K324A", "light": "not shown"}, "B9": {"name": "IL6R-P772/IL6R-L (antibody, human IgG1, kappa)", "heavy": "B1 heavy with E270H, K324E", "light": "not shown"}}, "note": "Residue numbers refer to the chain shown, from its start.", "data": [{"target": "T1, human FcγRIIa H type extracellular domain with C-terminal His tag (human, UniProt P12318 34-217)", "T1 construct": "extracellular domain; also called FcgRIIaH", "T1 sequence (looked up)": "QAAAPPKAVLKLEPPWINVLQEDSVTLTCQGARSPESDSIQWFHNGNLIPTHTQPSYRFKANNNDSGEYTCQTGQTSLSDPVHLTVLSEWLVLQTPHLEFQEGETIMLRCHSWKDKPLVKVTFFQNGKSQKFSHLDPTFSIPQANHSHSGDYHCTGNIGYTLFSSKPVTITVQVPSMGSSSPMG", "assay": "SPR, KD of IL6R-G1d/IL6R-L divided by KD of variant", "values": [{"binder": "B1", "Relative FcgRIIaH-binding Activity": 0.026}, {"binder": "B2", "Relative FcgRIIaH-binding Activity": 0.028}, {"binder": "B3", "Relative FcgRIIaH-binding Activity": 0.025}, {"binder": "B4", "Relative FcgRIIaH-binding Activity": 0.02}, {"binder": "B5", "Relative FcgRIIaH-binding Activity": 0.027}, {"binder": "B6", "Relative FcgRIIaH-binding Activity": 0.007}, {"binder": "B7", "Relative FcgRIIaH-binding Activity": 0.006}, {"binder": "B8", "Relative FcgRIIaH-binding Activity": 0.007}, {"binder": "B9", "Relative FcgRIIaH-binding Activity": 0.006}]}, {"target": "T2, human FcγRIIa R type extracellular domain with C-terminal His tag (human, UniProt P12318 34-217)", "T2 construct": "extracellular domain; also called FcgRIIaR", "T2 sequence (looked up)": "T1 sequence (looked up) with H134R", "assay": "SPR, KD of IL6R-G1d/IL6R-L divided by KD of variant", "values": [{"binder": "B1", "Relative FcgRIIaR-binding Activity": 0.52}, {"binder": "B2", "Relative FcgRIIaR-binding Activity": 0.52}, {"binder": "B3", "Relative FcgRIIaR-binding Activity": 0.5}, {"binder": "B4", "Relative FcgRIIaR-binding Activity": 0.39}, {"binder": "B5", "Relative FcgRIIaR-binding Activity": 0.39}, {"binder": "B6", "Relative FcgRIIaR-binding Activity": 0.38}, {"binder": "B7", "Relative FcgRIIaR-binding Activity": 0.32}, {"binder": "B8", "Relative FcgRIIaR-binding Activity": 0.26}, {"binder": "B9", "Relative FcgRIIaR-binding Activity": 0.35}]}, {"target": "T3, human FcγRIa extracellular domain with C-terminal His tag (human, UniProt P12314 16-292)", "T3 construct": "Whole entry named; also called FcgRIa", "T3 sequence (P12314 16-292)": "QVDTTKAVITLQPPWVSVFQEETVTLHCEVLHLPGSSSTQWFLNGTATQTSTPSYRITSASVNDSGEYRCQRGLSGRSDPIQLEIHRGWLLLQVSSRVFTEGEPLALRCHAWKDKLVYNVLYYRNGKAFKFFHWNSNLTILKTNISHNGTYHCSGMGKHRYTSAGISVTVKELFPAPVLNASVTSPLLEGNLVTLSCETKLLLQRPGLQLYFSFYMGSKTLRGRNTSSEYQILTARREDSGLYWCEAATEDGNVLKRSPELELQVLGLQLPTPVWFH", "assay": "SPR, KD of IL6R-G1d/IL6R-L divided by KD of variant", "values": [{"binder": "B1", "Relative FcgRIa-binding Activity": 0.086}, {"binder": "B2", "Relative FcgRIa-binding Activity": 0.178}, {"binder": "B3", "Relative FcgRIa-binding Activity": 0.33}, {"binder": "B4", "Relative FcgRIa-binding Activity": 0.059}, {"binder": "B5", "Relative FcgRIa-binding Activity": 0.097}, {"binder": "B6", "Relative FcgRIa-binding Activity": 0.027}, {"binder": "B7", "Relative FcgRIa-binding Activity": 0.021}, {"binder": "B8", "Relative FcgRIa-binding Activity": 0.023}, {"binder": "B9", "Relative FcgRIa-binding Activity": 0.035}]}, {"target": "T4, human FcγRIIb extracellular domain with C-terminal His tag (human, UniProt P31994 43-217)", "T4 construct": "extracellular domain; also called FcgRIIb", "T4 sequence (looked up)": "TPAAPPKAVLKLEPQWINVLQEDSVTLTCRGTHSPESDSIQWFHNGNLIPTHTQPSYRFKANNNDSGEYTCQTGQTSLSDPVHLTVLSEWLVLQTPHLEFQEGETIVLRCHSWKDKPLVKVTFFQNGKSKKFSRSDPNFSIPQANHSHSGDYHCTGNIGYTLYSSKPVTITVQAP", "assay": "SPR, KD of IL6R-G1d/IL6R-L divided by KD of variant", "values": [{"binder": "B1", "Relative FcgRIIb-binding Activity": 42}, {"binder": "B2", "Relative FcgRIIb-binding Activity": 39.6}, {"binder": "B3", "Relative FcgRIIb-binding Activity": 7.2}, {"binder": "B4", "Relative FcgRIIb-binding Activity": 17.5}, {"binder": "B5", "Relative FcgRIIb-binding Activity": 12.4}, {"binder": "B6", "Relative FcgRIIb-binding Activity": 28.4}, {"binder": "B7", "Relative FcgRIIb-binding Activity": 12.4}, {"binder": "B8", "Relative FcgRIIb-binding Activity": 15}, {"binder": "B9", "Relative FcgRIIb-binding Activity": 21.6}]}, {"target": "T5, human FcγRIIIa V type extracellular domain with C-terminal His tag (human, UniProt P08637 17-208)", "T5 construct": "extracellular domain; also called FcgRIIIaV", "T5 sequence (P08637 17-208 F176V)": "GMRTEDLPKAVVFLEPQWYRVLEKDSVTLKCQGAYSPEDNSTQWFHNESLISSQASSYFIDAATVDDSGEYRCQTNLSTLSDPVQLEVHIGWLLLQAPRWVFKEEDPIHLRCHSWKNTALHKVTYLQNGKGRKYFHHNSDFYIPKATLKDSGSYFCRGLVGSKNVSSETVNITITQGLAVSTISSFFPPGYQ", "assay": "SPR, KD of IL6R-G1d/IL6R-L divided by KD of variant", "values": [{"binder": "B1", "Relative FcgRIIIaV-binding Activity": 0.006}, {"binder": "B2", "Relative FcgRIIIaV-binding Activity": 0.008}, {"binder": "B3", "Relative FcgRIIIaV-binding Activity": 0.008}, {"binder": "B4", "Relative FcgRIIIaV-binding Activity": 0.005}, {"binder": "B5", "Relative FcgRIIIaV-binding Activity": 0.008}, {"binder": "B6", "Relative FcgRIIIaV-binding Activity": 0.006}, {"binder": "B7", "Relative FcgRIIIaV-binding Activity": 0.007}, {"binder": "B8", "Relative FcgRIIIaV-binding Activity": 0.01}, {"binder": "B9", "Relative FcgRIIIaV-binding Activity": 0.006}]}, {"target": "T2, human FcγRIIa R type extracellular …", "assay": "SPR, antibody captured, FcgR analyte", "units": {"Kd": "nM"}, "values": [{"binder": "B1", "Kd": 2100}, {"binder": "B2", "Kd": 2100}, {"binder": "B3", "Kd": 2200}, {"binder": "B4", "Kd": 2800}, {"binder": "B5", "Kd": 2800}, {"binder": "B6", "Kd": 2900}, {"binder": "B7", "Kd": 3400}, {"binder": "B8", "Kd": 4300}, {"binder": "B9", "Kd": 3100}]}, {"target": "T3, human FcγRIa extracellular domain with …", "assay": "SPR, antibody captured, FcgR analyte", "units": {"Kd": "nM"}, "values": [{"binder": "B1", "Kd": 3.7}, {"binder": "B2", "Kd": 1.8}, {"binder": "B3", "Kd": 0.97}, {"binder": "B4", "Kd": 5.4}, {"binder": "B5", "Kd": 3.3}, {"binder": "B6", "Kd": 12}, {"binder": "B7", "Kd": 15}, {"binder": "B8", "Kd": 14}, {"binder": "B9", "Kd": 9.1}]}, {"target": "T4, human FcγRIIb extracellular domain with …", "assay": "SPR, antibody captured, FcgR analyte", "units": {"Kd": "nM"}, "values": [{"binder": "B1", "Kd": 50}, {"binder": "B2", "Kd": 53}, {"binder": "B3", "Kd": 290}, {"binder": "B4", "Kd": 120}, {"binder": "B5", "Kd": 170}, {"binder": "B6", "Kd": 74}, {"binder": "B7", "Kd": 170}, {"binder": "B8", "Kd": 140}, {"binder": "B9", "Kd": 97}]}]}
